Measured values published in doi:10.1101/2024.04.29.591597 (bioRxiv, 2024).

Key:
[1] = target: native OspC type K (OspCK) on live B. burgdorferi strain 297 (B. burgdorferi (endogenous in strain 297)); assay: flow cytometry on cells
[2] = target: OspC type B (OspCB) used in BLI (Borreliella burgdorferi, OspC type B …, UniProt Q44977); assay: BLI
[3] = target: the molecule itself; assay: crystal structure

| Binder | MFI [1] | binding result [2] | stoichiometry N [3] |
| --- | --- | --- | --- |
| human monoclonal antibody B11 IgG1 (antibody, V domains shown) VH: QLQLQESGPGLVKPSQTLSLTCTLSGGSISSTSYYWGWIRQPPGSGLEWIGSMYHSGNTYYKSSLKGRVTISLDTSRTQFSLRLTSVTAADTAVYYCARLGDVFNSAMDVWGQGTTVIVSS VL: EIVMTQSPVTLSVSPGERATLSCRASQSVGNNLAWYQHKPGQAPRLLIYDASTRATGIPGRFSGSGSGTEFTLTISSLQSEDFAVYYCQEYNNWPRYTFGQGAKLEIR | < 35 | no binding |  |
| Recombinant Outer surface protein C type A (OspCA), residues 38 to 201, homodimer (domain or fragment, B. burgdorferi B31, UniProt Q07337 38-201, looked up) KGPNLTEISKKITDSNAVLLAVKEVEALLSSIDEIAAKAIGKKIHQNNGLDTENNHNGSLLAGAYAISTLIKQKLDGLKNEGLKEKIDAAKKCSETFTNKLKEKHTDLGKEGVTDADAKEAILKTNGTKTKGAEELGKLFESVEVLSKAAKEMLANSVKELTSP |  |  | 2 |
